Assays:
Test in all cases: cell-based or functional assay
CCR1 = CCR1 (UniProt P32246)
CCR3 = CCR3 (UniProt P51677)
CCR4 = CCR4 (UniProt P51679)
CCR5 = CCR5 (UniProt P51681)
CXCR4 = CXCR4 (UniProt P61073)
UniProt P61073, sequence (P61073 whole entry): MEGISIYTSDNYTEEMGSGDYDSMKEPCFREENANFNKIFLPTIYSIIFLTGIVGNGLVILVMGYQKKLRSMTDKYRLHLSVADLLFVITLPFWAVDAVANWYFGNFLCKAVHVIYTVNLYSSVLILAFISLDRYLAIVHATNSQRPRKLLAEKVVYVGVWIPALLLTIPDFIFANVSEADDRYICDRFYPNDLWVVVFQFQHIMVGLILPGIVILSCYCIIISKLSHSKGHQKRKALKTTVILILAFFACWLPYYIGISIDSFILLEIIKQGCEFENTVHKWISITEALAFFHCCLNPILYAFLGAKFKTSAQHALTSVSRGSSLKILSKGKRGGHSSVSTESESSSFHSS

UniProt P51679, sequence (P51679 whole entry): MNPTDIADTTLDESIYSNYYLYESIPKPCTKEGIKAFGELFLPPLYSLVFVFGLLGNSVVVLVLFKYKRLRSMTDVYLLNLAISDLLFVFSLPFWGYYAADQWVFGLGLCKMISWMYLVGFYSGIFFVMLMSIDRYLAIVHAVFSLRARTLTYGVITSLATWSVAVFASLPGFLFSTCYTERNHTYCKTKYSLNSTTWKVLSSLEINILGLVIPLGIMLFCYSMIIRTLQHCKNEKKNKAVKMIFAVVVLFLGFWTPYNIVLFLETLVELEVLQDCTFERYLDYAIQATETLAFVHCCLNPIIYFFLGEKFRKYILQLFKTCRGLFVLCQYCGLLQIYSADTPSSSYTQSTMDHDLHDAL
UniProt P51681, sequence (P51681 whole entry): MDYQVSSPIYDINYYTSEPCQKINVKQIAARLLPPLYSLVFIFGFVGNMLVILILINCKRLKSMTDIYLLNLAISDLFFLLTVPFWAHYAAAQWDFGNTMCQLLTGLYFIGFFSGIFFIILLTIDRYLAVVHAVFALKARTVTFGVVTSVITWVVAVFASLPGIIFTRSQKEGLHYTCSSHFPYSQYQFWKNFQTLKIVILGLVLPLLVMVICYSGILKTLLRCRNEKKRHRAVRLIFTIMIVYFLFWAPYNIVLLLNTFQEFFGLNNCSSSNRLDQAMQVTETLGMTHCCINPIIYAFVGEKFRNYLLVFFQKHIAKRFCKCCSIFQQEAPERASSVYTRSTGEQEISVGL
UniProt P32246, sequence (P32246 whole entry): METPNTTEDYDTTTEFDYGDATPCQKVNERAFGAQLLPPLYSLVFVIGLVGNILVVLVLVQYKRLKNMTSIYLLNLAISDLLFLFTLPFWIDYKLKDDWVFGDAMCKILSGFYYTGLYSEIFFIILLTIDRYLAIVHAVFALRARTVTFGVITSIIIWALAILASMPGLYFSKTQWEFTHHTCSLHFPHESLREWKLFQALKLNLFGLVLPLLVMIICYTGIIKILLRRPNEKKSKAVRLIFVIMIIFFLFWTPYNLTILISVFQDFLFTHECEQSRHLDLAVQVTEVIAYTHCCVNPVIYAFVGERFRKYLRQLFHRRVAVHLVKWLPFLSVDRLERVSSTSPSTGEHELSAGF
UniProt P51677, sequence (P51677 whole entry): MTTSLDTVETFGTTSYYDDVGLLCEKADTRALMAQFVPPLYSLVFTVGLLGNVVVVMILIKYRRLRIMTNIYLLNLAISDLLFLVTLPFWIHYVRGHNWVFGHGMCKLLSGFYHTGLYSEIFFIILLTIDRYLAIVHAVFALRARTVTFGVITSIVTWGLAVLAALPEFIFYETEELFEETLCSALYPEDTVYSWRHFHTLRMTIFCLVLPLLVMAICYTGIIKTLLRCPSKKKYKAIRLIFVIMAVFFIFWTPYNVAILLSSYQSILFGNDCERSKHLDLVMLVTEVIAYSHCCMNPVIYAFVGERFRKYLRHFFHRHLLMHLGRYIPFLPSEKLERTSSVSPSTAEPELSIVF

Substance | Infectivity Titer In HOS-CD4 Cells Expressing CCR1 (CCR1) | Infectivity Titer In HOS-CD4 Cells Expressing CCR3 (CCR3) | Infectivity Titer In HOS-CD4 Cells Expressing CCR4 (CCR4) | Infectivity Titer In HOS-CD4 Cells Expressing CCR5 (CCR5) | Infectivity Titer In HOS-CD4 Cells Expressing CXCR4 (CXCR4)
HIV-1 AD8 envelope | < 4 titer (1:x) | < 4 titer (1:x) | < 4 titer (1:x) | 256 titer (1:x) | < 4 titer (1:x)
HIV-1 NL4-3 envelope | < 4 titer (1:x) | < 4 titer (1:x) | < 4 titer (1:x) | 32 titer (1:x) | > 256 titer (1:x)

From US7090848
